Square brackets hold non-standard residues; d marks the D form. Ends that are not written are not given here. pS = N[C@@H](COP(=O)(O)O)C(=O)O
Legend:
Test in all cases: NMR titration
[1] = target: T1, IRAK1 p163 peptide 157-180 (Homo sapiens, UniProt P51617)
T1 chain: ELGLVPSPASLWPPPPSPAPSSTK

[2] = target: T2, IRAK1 p163 peptide 157-180 (Homo sapiens, UniProt P51617, phospho-Ser163)
T2 chain: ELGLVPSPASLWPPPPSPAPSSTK

[3] = target: T3, IRAK1 p144 peptide 140-149 (Homo sapiens, UniProt P51617)
T3 chain: STFL[pS]PAFPG

[4] = target: T4, IRAK1 p131 peptide 126-135 (Homo sapiens, UniProt P51617)
T4 chain: EAEAW[pS]PRKL

Row | Binder | Kd [1] [µM] | Kd [2] [µM] | Kd [3] [µM] | Kd [4] [µM]
1 | MADEEKLPPGWEKRMSRSSGRVYYFNHITNASQWERPSGNSSSGGKNGQG (not fully specified; phospho-Ser163) [Pin1 WW domain 1-50] | 385 | – | – | –
2 | Pin1 PPIase domain 46-163 (protein) KNGQGEPARVRCSHLLVKHSQSRRPSSWRQEKITRTKEEALELINGYIQKIKSGEEDFESLASQFSDCSSAKARGDLGAFSRGQMQKPFEDASFALRTGEMSGPVFTDSGIHIILRTE | – | 230 | 689 | 161

— paper PMC5298935 (2016)
